Test results from PMC2758704, “Human Papillomavirus-16 E7 Interacts with Glutathione S-Transferase P1 and Enhances Its Role in Cell Survival” (PLoS ONE, 2009).
Ends that are not written are not given here.

B1: HPV-16 E7 12-mer peptide aa 49–60 (peptide)
peptide: RAHYNIVTFCCK
modifications: cysteine pairing not given here; also: bound to a polypropylene rod
notes: residues 49-60 of the E7 oncoprotein of HPV-16; also called peptide 49–60; the 49–60 12-mer; source: synthetic peptide, on polypropylene rods (PepSets, Mimotopes)
B2: HPV-16 E7 C-terminal 12-mer peptide (30th rod, amino acids 88–99 with an added Gly) (peptide)
peptide: GIVCPICSQKPG
modifications: cysteine pairing not given here; also: bound to a polypropylene rod
notes: residues 88-98 (the C-terminus) of the E7 oncoprotein of HPV-16; a Gly added to the last C-terminal HPV-16 E7 amino acid to complete the 12-mer; The text names the region aa 89–98 in one place and 88–98 in others; also called C-terminal 88–98 peptide; C-terminal portion (aa 89–98); source: synthetic peptide, on polypropylene rods (PepSets, Mimotopes)

Molecular target: T1, N-6His-GSTP1 recombinant protein (human, UniProt P09211 1-210)
T1 construct: human GSTP1, ORF made by RT-PCR from HaCaT RNA, cloned through pDONR201 into pDEST17; The printed forward primer begins at the codons for Pro-Pro-Tyr-Thr (residue 2, without the first Met) and the reverse primer holds the stop codon; Gateway attB1 linker residues lie between the His tag and GSTP1; also called recombinant GSTP1; not shown: His6, N-terminal, kept
Assay: peptide or protein array; PepSets: 30 rod-bound 12-mers of HPV-16 E7 with a 9 amino acid overlap; recombinant GSTP1 captured by each rod detected by an immunoenzyme assay with an anti-GSTP1 polyclonal antibody
Settings: both partners purified

T1 sequence (P09211 whole entry): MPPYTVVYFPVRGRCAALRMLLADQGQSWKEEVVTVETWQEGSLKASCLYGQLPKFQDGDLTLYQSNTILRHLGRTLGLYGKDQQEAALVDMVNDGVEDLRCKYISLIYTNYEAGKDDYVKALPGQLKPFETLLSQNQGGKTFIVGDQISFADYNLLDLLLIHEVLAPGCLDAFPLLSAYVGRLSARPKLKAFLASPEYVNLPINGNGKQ

| Binder | binding result |
| --- | --- |
| B1 | binds |
| B2 | binds |
